Experimental findings from publication PMC11536449 are described below.

Like-named read-outs stand apart in the source and are kept apart here.

Series [1] addresses T1, CmRSM1-GST (Cucumis melo (melon), UniProt A0A1S3CDK8 1-116).
T1 sequence: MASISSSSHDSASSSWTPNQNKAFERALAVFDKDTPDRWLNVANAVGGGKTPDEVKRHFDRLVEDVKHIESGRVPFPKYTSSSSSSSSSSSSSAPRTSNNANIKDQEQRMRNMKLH
Put plainly: EMSA.

Series [2] concerns the target T1, CmRSM1-GST. Put plainly: EMSA. This is another data set of the same source.

B1: P3 probe (CmBr promoter, MRE motif) (dsDNA)
DNA 1: ACTTAGTTTTGAGATCAAATAACTCCTTAGGTTAGTTAATCATTCATTGATTCAATCAA
DNA 2: TTGATTGAATCAATGAATGATTAACTAACCTAAGGAGTTATTTGATCTCAAAACTAAGT
Consider B1, for which the binding result with CmRSM1-GST [1] is reported as “no binding”.

B2: P1 probe (CmBr promoter, Myb motif) (dsDNA)
DNA 1: ACATTTACTTTTAGATGAAATTGTAACAGTTAGCTAAGTCGTTCACTTCGTTGAAATTA
DNA 2: TAATTTCAACGAAGTGAACGACTTAGCTAACTGTTACAATTTCATCTAAAAGTAAATGT
As to B2, the binding result with CmRSM1-GST [2] is given as “binds”.

B3: P2 probe (CmBr promoter, MYB and MBS motifs) (dsDNA)
DNA 1: GACAACAAATTTATAAGTAATTGTTCAACCAACTGAAAACGAGAAAAGTAAATATATCT
DNA 2: AGATATATTTACTTTTCTCGTTTTCAGTTGGTTGAACAATTACTTATAAATTTGTTGTC
Consider B3, for which the binding result with CmRSM1-GST [1] is given as “no binding”.
